B1: CTA99, chimeric antibody with a human constant region IgG1 (antibody, V domains shown)
VH: EVQLQQSGAELVRPGALVKLSCKTSGFNIKDYFLHWVRQRPDQGLEWIGWINPDNGNTVYDPKFQGTASLTADTSSNTVYLQLSGLTSEDTAVYFCTRRDYTYEKAALDYWGQGASVIVFS
VL: AIQMSQSPASLSASVGETVTITCRASGNIYNYLAWYQQKQGKSPHLLVYDAKTLADGVPSRFSGSGSGTQYSLKISSLQTEDSGNYYCQHFWSLPFTFGSGTKLEIKR

Assays:
[1] = target: recombinant human TYRP1 (tyrosinase-related protein-1) (human) (UniProt P17643); assay: SPR (Biacore), TYRP1 immobilized; summary table
[2] = target: recombinant human TYRP1 (tyrosinase-related protein-1) (human) (UniProt P17643); assay: ELISA on plate-coated recombinant human TYRP1 (column headed 'Competition ELISA'); summary table
[3] = target: recombinant human TYRP1 (tyrosinase-related protein-1) (human) (UniProt P17643); assay: ELISA, plate coated with recombinant human TYRP1, antibody titrated
[4] = target: recombinant human TYRP1 (tyrosinase-related protein-1) (human) (UniProt P17643); assay: SPR (Biacore), TYRP1 immobilized on CM5 chip, antibody injected, 20-25 °C
[5] = target: native human TYRP1 expressed on human melanoma cell lines (624mel, SKmel28, SKmel23) (human, UniProt P17643 25-537); assay: cell-based or functional assay

| Molecule | Kd [1] | EC50 [2] | EC50 [3] | Kd [4] | koff [4] | kon [4] | Human ADCC (%) [5] |
| --- | --- | --- | --- | --- | --- | --- | --- |
| TA99, murine monoclonal antibody (IgG2a) specific for human and murine TYRP1 | 1.7 nM | 0.4 nM | 0.4 nM | 1.7 nM | 0.00016 s⁻¹ | 95000 M⁻¹ s⁻¹ |  |
| B1 |  |  |  |  |  |  | 48% |
